According to the supplement of paper PMC10065799, “High-throughput profiling of sequence recognition by tyrosine kinases and SH2 domains using bacterial peptide display” (eLife, 2023):

What was measured:
[1] = target: Grb2 SH2 (UniProt P62993); assay: SH2 binding enrichment of the phosphorylated peptide, bacterial display (enrichment ratio); higher = better substrate or ligand; peptides without Tyr show the background
[2] = target: SHP2-C SH2; assay: as above
[3] = target: c-Src SH2; assay: as above
[4] = target: Fyn (UniProt P06241); assay: phosphorylation enrichment, bacterial display (enrichment ratio); higher = better substrate or ligand; peptides without Tyr show the background
[5] = system: c-Abl (mouse); assay: as above
[6] = target: EPHB2 (UniProt P29323); assay: as above
[7] = target: FGFR3 (UniProt P22607); assay: as above
FGFR3, sequence (P22607 whole entry, looked up): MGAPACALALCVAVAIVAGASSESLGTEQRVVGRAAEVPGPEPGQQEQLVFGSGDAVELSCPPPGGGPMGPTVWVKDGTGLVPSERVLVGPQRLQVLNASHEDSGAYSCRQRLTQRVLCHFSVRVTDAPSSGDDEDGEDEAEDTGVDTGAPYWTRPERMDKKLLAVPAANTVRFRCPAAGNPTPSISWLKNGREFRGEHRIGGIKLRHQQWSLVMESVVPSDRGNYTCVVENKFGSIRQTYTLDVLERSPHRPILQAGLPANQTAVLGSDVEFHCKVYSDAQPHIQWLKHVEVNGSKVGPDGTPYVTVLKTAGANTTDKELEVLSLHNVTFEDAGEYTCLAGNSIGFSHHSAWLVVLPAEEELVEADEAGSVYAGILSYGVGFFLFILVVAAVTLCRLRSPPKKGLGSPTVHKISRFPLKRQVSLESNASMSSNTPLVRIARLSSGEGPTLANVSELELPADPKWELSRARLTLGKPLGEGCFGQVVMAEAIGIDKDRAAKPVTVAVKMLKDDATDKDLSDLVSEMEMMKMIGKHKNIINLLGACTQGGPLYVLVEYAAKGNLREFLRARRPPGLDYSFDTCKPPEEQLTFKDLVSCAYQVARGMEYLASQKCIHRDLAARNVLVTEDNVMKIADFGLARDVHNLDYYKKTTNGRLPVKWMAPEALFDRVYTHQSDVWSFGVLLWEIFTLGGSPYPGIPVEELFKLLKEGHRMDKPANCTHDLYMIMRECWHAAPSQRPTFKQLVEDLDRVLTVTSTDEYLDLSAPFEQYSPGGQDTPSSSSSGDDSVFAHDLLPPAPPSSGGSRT

[8] = system: c-Src; assay: as above
[9] = system: Fer (mouse); assay: as above
[10] = target: Fes (UniProt P07332); assay: as above
Fes, sequence (P07332 whole entry, looked up): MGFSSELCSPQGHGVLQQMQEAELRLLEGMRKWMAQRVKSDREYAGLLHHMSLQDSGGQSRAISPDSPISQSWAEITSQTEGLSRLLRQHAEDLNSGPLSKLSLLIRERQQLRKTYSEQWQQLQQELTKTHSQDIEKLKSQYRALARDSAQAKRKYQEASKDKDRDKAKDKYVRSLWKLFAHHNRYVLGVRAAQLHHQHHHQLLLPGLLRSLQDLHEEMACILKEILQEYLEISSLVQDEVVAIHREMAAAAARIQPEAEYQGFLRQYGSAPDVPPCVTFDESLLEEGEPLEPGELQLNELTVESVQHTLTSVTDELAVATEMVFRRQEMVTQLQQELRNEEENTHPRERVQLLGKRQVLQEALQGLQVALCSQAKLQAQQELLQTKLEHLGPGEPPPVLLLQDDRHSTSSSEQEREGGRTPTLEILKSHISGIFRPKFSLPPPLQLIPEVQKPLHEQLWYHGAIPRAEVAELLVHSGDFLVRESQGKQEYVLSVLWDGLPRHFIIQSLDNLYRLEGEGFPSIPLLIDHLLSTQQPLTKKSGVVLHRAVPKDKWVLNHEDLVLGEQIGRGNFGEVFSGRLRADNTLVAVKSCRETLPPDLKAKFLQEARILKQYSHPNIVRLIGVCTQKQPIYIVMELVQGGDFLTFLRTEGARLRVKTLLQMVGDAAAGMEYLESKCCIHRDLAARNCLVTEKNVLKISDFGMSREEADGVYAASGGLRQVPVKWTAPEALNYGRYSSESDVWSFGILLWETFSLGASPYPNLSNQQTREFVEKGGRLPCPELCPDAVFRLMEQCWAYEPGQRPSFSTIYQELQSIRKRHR

[11] = system: AncSZ; assay: as above
[12] = target: MERTK (UniProt Q12866); assay: as above
MERTK, sequence (Q12866 whole entry, looked up): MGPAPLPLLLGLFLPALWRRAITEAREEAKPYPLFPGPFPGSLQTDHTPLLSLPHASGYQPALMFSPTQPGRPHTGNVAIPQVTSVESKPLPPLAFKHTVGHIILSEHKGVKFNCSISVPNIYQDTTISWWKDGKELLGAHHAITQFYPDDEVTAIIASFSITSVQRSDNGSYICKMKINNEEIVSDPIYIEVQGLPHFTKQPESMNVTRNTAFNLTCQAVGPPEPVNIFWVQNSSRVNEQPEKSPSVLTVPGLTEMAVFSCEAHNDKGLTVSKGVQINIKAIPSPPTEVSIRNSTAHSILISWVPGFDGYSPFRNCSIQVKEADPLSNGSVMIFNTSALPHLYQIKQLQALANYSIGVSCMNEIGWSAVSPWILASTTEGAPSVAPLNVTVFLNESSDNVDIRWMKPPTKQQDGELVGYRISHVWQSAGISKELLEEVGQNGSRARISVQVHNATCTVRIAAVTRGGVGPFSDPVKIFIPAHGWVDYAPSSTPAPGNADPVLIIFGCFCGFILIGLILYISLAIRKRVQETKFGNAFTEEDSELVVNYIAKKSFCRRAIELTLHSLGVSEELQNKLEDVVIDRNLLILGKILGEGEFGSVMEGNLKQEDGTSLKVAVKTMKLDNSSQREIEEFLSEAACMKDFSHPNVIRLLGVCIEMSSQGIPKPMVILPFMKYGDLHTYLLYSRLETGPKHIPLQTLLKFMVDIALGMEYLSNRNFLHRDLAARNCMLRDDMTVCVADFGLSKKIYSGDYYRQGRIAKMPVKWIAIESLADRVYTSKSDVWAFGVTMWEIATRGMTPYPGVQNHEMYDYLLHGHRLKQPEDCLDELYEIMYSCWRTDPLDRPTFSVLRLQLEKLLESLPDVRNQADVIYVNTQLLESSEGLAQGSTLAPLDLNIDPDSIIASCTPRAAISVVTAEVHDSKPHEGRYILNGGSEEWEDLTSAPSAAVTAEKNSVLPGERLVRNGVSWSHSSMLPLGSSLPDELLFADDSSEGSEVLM

[13] = target: EPHB1 (UniProt P54762); assay: as above
EPHB1, sequence (P54762 whole entry, looked up): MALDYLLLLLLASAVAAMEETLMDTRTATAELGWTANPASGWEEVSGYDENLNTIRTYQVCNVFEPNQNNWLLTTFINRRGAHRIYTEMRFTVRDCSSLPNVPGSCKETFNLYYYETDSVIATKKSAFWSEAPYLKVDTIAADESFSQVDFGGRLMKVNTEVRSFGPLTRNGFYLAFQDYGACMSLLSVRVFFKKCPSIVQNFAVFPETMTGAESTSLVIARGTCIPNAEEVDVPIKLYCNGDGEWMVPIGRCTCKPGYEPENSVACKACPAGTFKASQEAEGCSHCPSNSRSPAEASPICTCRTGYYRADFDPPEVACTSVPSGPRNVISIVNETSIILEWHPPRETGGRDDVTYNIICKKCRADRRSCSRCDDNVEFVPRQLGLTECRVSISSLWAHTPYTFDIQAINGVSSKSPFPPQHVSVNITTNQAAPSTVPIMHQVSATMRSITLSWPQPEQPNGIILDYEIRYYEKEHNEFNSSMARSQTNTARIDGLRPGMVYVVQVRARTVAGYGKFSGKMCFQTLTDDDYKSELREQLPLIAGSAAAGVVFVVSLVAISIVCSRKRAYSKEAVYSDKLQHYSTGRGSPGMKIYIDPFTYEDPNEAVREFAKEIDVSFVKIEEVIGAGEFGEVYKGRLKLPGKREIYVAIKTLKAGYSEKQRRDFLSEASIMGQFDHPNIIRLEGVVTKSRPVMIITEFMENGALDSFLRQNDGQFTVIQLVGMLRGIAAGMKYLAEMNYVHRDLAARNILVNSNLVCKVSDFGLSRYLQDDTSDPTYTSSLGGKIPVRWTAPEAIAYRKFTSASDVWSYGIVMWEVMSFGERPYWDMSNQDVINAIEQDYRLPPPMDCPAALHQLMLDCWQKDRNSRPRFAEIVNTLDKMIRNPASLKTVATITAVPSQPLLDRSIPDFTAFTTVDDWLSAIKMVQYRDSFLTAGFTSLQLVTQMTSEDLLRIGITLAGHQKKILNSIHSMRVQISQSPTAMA

[14] = target: Jak2 (UniProt O60674); assay: as above
[15] = target: FGFR1 (UniProt P11362); assay: as above
FGFR1, sequence (P11362 whole entry, looked up): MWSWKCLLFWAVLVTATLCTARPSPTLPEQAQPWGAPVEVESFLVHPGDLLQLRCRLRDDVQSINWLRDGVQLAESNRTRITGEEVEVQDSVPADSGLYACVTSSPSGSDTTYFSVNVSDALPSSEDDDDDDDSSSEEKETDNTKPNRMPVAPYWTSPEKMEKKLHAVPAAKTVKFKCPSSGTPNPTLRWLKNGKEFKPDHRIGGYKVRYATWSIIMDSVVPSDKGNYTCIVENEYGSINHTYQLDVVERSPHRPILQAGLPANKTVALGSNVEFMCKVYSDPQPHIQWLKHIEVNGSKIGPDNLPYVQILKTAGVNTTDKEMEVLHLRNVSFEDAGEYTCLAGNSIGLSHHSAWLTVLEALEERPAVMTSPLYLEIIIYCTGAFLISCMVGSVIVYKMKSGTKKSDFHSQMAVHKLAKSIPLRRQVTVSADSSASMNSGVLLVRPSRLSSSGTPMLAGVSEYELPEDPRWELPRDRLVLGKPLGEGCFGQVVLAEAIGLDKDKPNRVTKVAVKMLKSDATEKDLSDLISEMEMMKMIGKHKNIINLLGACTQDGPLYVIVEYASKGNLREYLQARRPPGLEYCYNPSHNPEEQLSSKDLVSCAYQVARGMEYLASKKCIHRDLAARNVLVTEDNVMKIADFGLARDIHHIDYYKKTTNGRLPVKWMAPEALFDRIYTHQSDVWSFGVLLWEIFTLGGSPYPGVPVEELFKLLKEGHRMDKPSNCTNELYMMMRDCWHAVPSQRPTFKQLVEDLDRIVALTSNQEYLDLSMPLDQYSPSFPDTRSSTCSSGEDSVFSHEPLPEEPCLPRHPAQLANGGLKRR

[16] = target: Hck (UniProt P08631); assay: as above
Hck, sequence (P08631 whole entry, looked up, the tested form may be a part): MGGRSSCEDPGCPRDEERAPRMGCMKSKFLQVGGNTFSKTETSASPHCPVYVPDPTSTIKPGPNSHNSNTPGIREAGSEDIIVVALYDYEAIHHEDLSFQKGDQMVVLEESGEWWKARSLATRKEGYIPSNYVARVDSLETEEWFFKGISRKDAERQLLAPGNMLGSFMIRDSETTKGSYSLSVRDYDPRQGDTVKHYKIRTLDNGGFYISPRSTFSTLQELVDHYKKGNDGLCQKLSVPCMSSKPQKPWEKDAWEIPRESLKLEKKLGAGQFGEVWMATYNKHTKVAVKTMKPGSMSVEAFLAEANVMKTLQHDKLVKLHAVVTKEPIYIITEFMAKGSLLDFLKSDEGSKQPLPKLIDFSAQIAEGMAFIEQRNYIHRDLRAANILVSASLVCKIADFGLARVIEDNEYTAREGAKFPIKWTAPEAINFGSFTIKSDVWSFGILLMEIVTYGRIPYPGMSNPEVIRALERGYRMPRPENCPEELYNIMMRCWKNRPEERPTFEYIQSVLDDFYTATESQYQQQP
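For SH2 binding enrichment of the phosphorylated peptide, bacterial display in this document: peptide library displayed on the E. coli surface as eCPX fusions, selected cells deep-sequenced, score is each peptide's frequency after selection divided by its frequency in the input.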
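For phosphorylation enrichment, bacterial display in this document: 11-residue human phosphosite peptides and single-mutation variants displayed on the E. coli surface, counted by deep sequencing, each peptide's frequency after selection divided by its frequency in the unselected input library; frequency after pTyr selection over input frequency; kinase dosed for 20-30% of maximal phosphorylation in three min.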

Sequence | SH2 binding enrichment [1] | SH2 binding enrichment [2] | SH2 binding enrichment [3] | phosphorylation enrichment [4] | phosphorylation enrichment [5] | phosphorylation enrichment [6] | phosphorylation enrichment [7] | phosphorylation enrichment [8] | phosphorylation enrichment [9] | phosphorylation enrichment [10] | phosphorylation enrichment [11] | phosphorylation enrichment [12] | phosphorylation enrichment [13] | phosphorylation enrichment [14] | phosphorylation enrichment [15] | phosphorylation enrichment [16]
CQGSLYPSNHD [LRIG1_Y996] | 0.781 | 0.568 | 0.518 | 0.535 | 0.567 | 0.531 | 0.551 | 0.571 | 0.501 | 0.979 | 0.879 | 0.391 | 0.582 | 1.03 | 0.531 | 0.611
SSEILYHIIKG [CDH17_Y489_K486E] | 1.2 | 1.18 | 2.4 | 2.85 | 10.4 | 0.684 | 8.65 | 4.11 | 1.08 | 0.875 | 1.38 | 8.04 | 0.806 | 1.69 | 10.9 | 5.02
DEYLEHRRIVG [FAM221A_Y20_Y20H] | 0.918 | 0.611 | 0.484 | 0.399 | 0.434 | 0.679 | 0.611 | 0.347 | 0.506 | 0.883 | 0.764 | 0.38 | 1.95 | 0.526 | 0.6 | 0.489
RGRSTYFWPSP [GAGE12J_Y9_R13S_YF] | 0.557 | 0.524 | 0.491 | 0.511 | 0.711 | 0.621 | 0.615 | 0.505 | 0.504 | 0.564 | 0.669 | 0.947 | 0.468 | 0.673 | 0.49 | 0.824
KRAIGHFSATS [FAM120A_Y327_Y327H_YF] | 0.852 | 0.66 | 0.525 | 0.351 | 0.402 | 0.332 | 0.39 | 0.387 | 0.338 | 0.42 | 0.423 | 0.371 | 0.407 | 0.456 | 0.335 | 0.397
SPPILYSFFLD [FCRL6_Y239_YF] | 1.21 | 1.01 | 0.74 | 2.28 | 0.901 | 1.97 | 1.38 | 3.23 | 1.84 | 1.14 | 1.19 | 9.91 | 2.85 | 1.18 | 1.4 | 2.08
RFVVLYDAELT [ERCC4_Y581_YF] | 1.61 | 1.31 | 0.837 | 0.657 | 0.876 | 1.15 | 0.763 | 0.807 | 0.672 | 1.9 | 1.58 | 0.979 | 1.38 | 1.72 | 0.841 | 0.91
VMSGPYNLKAL [IL1B_Y140_E141N] | 0.886 | 0.622 | 0.545 | 0.596 | 0.643 | 0.475 | 0.556 | 0.758 | 0.508 | 0.765 | 0.888 | 0.507 | 0.534 | 0.959 | 0.569 | 0.473
HFGCVYLGTLL [MET_Y1093_H1094L] | 0.692 | 0.553 | 0.483 | 0.897 | 1.39 | 1.1 | 1.67 | 4.61 | 0.923 | 2.24 | 2.29 | 0.597 | 1.02 | 2.07 | 0.925 | 1.01
FNVLQYVVPEV [EIF3A_Y382] | 0.835 | 0.963 | 0.599 | 0.629 | 5.16 | 1.02 | 1.85 | 0.58 | 0.701 | 1.32 | 1.88 | 1.99 | 0.933 | 1.55 | 2.06 | 0.635
KEELDYLKKNH [KRT14_Y248_A247D] | 0.742 | 0.682 | 0.425 | 0.355 | 0.854 | 0.624 | 0.666 | 0.467 | 0.45 | 1.1 | 1.04 | 0.419 | 0.554 | 0.879 | 0.447 | 0.382

More lines, main results first:

SH2 binding enrichment [1] | SH2 binding enrichment [2] | SH2 binding enrichment [3] | Sequence | phosphorylation enrichment [4] | phosphorylation enrichment [5] | phosphorylation enrichment [6] | phosphorylation enrichment [7] | phosphorylation enrichment [8] | phosphorylation enrichment [9] | phosphorylation enrichment [10] | phosphorylation enrichment [11] | phosphorylation enrichment [12] | phosphorylation enrichment [13] | phosphorylation enrichment [14] | phosphorylation enrichment [15] | phosphorylation enrichment [16]
0.881 | 0.455 | 0.456 | LEPGIYIPEDD [XPNPEP3_Y455_I450L] | 0.705 | 0.974 | 0.717 | 1.22 | 0.518 | 0.709 | 1.5 | 1.58 | 0.653 | 0.716 | 1.24 | 0.556 | 0.558
0.893 | 0.678 | 0.527 | SSQVLYKLEQS [THADA_Y701] | 0.48 | 0.496 | 0.592 | 0.507 | 0.706 | 0.431 | 0.726 | 0.628 | 0.442 | 0.476 | 0.731 | 0.434 | 0.487
0.968 | 0.645 | 0.629 | KRAAIYNPVIY [RHO_Y301_S297R] | 2.33 | 0.469 | 0.415 | 0.443 | 2.67 | 5.24 | 0.556 | 0.547 | 1.06 | 0.398 | 0.424 | 0.577 | 4.27
0.712 | 0.715 | 0.505 | ISRDVYSTDFF [NTRK2_Y702_M697I_YF] | 3.12 | 0.666 | 0.819 | 0.855 | 2.84 | 0.568 | 0.929 | 0.903 | 5.74 | 0.866 | 0.785 | 0.934 | 1.35
0.736 | 0.548 | 0.708 | VHVEVYDPPSP | 0.794 | 0.949 | 0.572 | 0.826 | 0.719 | 0.758 | 1.3 | 1.65 | 0.775 | 0.749 | 1.27 | 0.672 | 0.833
0.867 | 0.693 | 1.72 | QITQVYGFYDE [PPP2CA_Y127] | 9.45 | 1.01 | 1.12 | 1.27 | 6.85 | 1.3 | 1.21 | 1.24 | 1.58 | 0.716 | 1.06 | 0.615 | 3.7
